{"source": "patent US20230139885A1", "about": "(FUNDACI INSTITUT DE RECERCA CONTRA LA LEUC MIA JOSEP …, published 2023)", "binders": {"B1": {"name": "anti-CD22 monoclonal antibody clone hCD22.7 (antibody, V domains shown)", "VH": "EVQLQESGPSLVKPSQTLSLTCSVTGDSITSGYWNWIRKFPGNKLEYMGYISYSGSTYYNPSLKSRISITRDTSKNQYYMQLKSVTTEDTATYYCARYPSPDAMNYWGQGTSVTVSS", "VL": "not shown", "notes": "also called hCD22.7 moAb; hCD22.7 clone"}}, "molecular_target": "T1, human CD22 on cells (human, UniProt P20273 20-847)", "T1 construct": "whole, on cells; also called CD22-transfected 300.19 cells; CD22+ Raji cells", "T1 sequence (looked up)": "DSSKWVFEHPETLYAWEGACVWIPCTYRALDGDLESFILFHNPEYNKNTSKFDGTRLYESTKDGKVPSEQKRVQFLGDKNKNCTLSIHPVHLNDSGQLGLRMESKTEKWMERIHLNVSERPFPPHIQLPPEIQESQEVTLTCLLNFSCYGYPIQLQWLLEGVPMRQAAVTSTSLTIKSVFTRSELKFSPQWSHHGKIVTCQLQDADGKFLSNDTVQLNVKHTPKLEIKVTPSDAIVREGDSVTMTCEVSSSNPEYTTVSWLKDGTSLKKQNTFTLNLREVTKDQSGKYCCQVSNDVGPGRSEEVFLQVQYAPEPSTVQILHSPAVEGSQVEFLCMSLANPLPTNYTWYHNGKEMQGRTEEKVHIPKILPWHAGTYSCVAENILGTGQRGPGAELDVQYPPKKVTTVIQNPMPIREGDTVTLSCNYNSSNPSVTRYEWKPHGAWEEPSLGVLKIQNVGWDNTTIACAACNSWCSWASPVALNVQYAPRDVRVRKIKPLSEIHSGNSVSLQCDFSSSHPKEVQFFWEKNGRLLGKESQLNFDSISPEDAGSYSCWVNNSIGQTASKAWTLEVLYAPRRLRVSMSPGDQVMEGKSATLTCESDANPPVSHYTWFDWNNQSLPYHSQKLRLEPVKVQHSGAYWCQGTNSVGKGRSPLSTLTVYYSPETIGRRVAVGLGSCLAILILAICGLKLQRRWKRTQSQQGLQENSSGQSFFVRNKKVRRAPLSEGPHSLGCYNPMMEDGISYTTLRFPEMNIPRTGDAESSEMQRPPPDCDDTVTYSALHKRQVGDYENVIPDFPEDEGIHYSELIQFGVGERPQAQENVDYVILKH", "experiment": "flow cytometry of hybridoma supernatants on CD22-transfected 300.19 cells", "description": "MoAbs reactive with human CD22 were generated by fusion of NS-1 myeloma cells with splenocytes from a Balb/c mouse previously immunized three times with 30×10⁶ CD22-transfected 300.19 cells. Supernatants from hybridoma-containing wells were screened by flow cytometry for moAbs reactive with CD22-transfected 300.19 cells. Three reactive hybridomas were chosen for further characterization and were subcloned by limiting dilution (clones hCD22.7, hCD22.316 and hCD22.401). The three antibodies were of the IgG1K isotype, as determined using a mouse moAb isotyping kit (Boehringer Mannheim, Mannheim, Germany). Antibody specificity was further validated using a CD22-transfected COS cell line (pUNO1-hCD22; InvivoGen, Toulouse, France), the cell lines Raji, Daudi, […], U266 and Jurkat, and peripheral blood (PB) mononuclear cells (PBMCs). CD22 epitope binding to the hCD22.7 clone was determined by crossblocking with an antibody against the N-terminal domain of CD22 (S-HCL-1). The CD22-specific scFv derived from the hCD22.7 clone was obtained using the mouse IgG Library Primer Set (Progen, Heidelberg, Germany).", "data": [{"binder": "B1", "values": [{"measurement": "binding result", "result": "binds"}]}]}
